The values below come from PMC5394417, “Investigating the molecular mechanism of positive and negative allosteric modulators in the calcium-sensing receptor dimer” (Scientific Reports, 2017).

This series deals with the molecule itself. Kind of series: FRET or BRET; TR-FRET dimerization assay on transiently transfected HEK293T cells co-expressing an HA-tagged and a myc-tagged construct (1:1); Tb3+-conjugated anti-HA antibody (donor, 1 nM) and d2-conjugated anti-myc antibody (acceptor, 50 nM), 24 h at 4 °C; HBSS, 20 mM HEPES, 0.5 mM CaCl2, 0.5 mM MgCl2, 5 mg/mL bovine serum albumin, pH 7.4; FRET ratio (665 nm/615 nm) normalized to pEGFPN1.

B1: rat calcium-sensing receptor, wild type (receptor, UniProt P48442 20-1079, looked up)
chain: YGPDQRAQKKGDIILGGLFPIHFGVAAKDQDLKSRPESVECIRYNFRGFRWLQAMIFAIEEINSSPSLLPNMTLGYRIFDTCNTVSKALEATLSFVAQNKIDSLNLDEFCNCSEHIPSTIAVVGATGSGVSTAVANLLGLFYIPQVSYASSSRLLSNKNQYKSFLRTIPNDEHQATAMADIIEYFRWNWVGTIAADDDYGRPGIEKFREEAEERDICIDFSELISQYSDEEEIQQVVEVIQNSTAKVIVVFSSGPDLEPLIKEIVRRNITGRIWLASEAWASSSLIAMPEYFHVVGGTIGFGLKAGQIPGFREFLQKVHPRKSVHNGFAKEFWEETFNCHLQEGAKGPLPVDTFVRSHEEGGNRLLNSSTAFRPLCTGDENINSVETPYMDYEHLRISYNVYLAVYSIAHALQDIYTCLPGRGLFTNGSCADIKKVEAWQVLKHLRHLNFTNNMGEQVTFDECGDLVGNYSIINWHLSPEDGSIVFKEVGYYNVYAKKGERLFINEEKILWSGFSREVPFSNCSRDCQAGTRKGIIEGEPTCCFECVECPDGEYSGETDASACDKCPDDFWSNENHTSCIAKEIEFLAWTEPFGIALTLFAVLGIFLTAFVLGVFIKFRNTPIVKATNRELSYLLLFSLLCCFSSSLFFIGEPQDWTCRLRQPAFGISFVLCISCILVKTNRVLLVFEAKIPTSFHRKWWGLNLQFLLVFLCTFMQILICIIWLYTAPPSSYRNHELEDEIIFITCHEGSLMALGSLIGYTCLLAAICFFFAFKSRKLPENFNEAKFITFSMLIFFIVWISFIPAYASTYGKFVSAVEVIAILAASFGLLACIFFNKVYIILFKPSRNTIEEVRSSTAAHAFKVAARATLRRPNISRKRSSSLGGSTGSIPSSSISSKSNSEDRFPQPERQKQQQPLSLTQQEQQQQPLTLHPQQQQQPQQPRCKQKVIFGSGTVTFSLSFDEPQKNAMAHRNSMRQNSLEAQRSNDTLGRHQALLPLQCADADSEMTIQETGLQGPMVGDHQPEMESSDEMSPALVMSTSRSFVISGGGSSVTENVLHS
notes: calcium-sensing receptor (CaSR), rat; Each copy carries one tag only, HA or myc; the two differently tagged copies were co-expressed; The mGluR5 signal peptide stands upstream of the tag; also called CaSR; WT HA-CaSR; source: HEK293T, transiently transfected (Lipofectamine 2000), on cells; not shown: HA (one copy), N-terminal, kept; myc (the other copy), N-terminal, kept
On to B1, for which the “fold increase in FRET signal” value turned out to be 11.8 fold.

B2: rat GPRC6A, wild type (receptor, UniProt Q70VB1 21-928, looked up)
chain: CHTPDDFVAITSPGHIMIGGLFAIHEKMLSSDDHPRQPQIQKCVGFEISVFLQTLAMIHSIEMINNSSLLSGVKLGYEIYDTCTEVTAAMAATLRFLSKFNCSRETVIFQCDYSSYVPRVKAIIGAGYSEISMAVSRMLNLQLMPQVSYESTAEILSDKIRFPSFLRTVPSDFYQTKAMAHLIRQSGWNWVGAITTDDDYGRLALNTFAIQAAENNVCIAFKEVLPAFLSDNTIEVRINQTLEKIIAEAQVNVIVVFLRKFHVFNLFNKAIERKISKIWIASDNWSTAAKIITIPNVKKLGKVVGFTFRRGNMSSFHSFLQTLHMYPSDNNKPLHEFAMLFSACKHIKDGDLSQCISNYSQATWTYDTTKTIETHLFKRNDFLWHYTEPGLIHSIQLAVLALGHAIRDLCQDRDCQKPNAFQPWELLAVLKNVTFTDGKNSFHFDAHGDLNTGYEVVLWKETNGLMTVTKMAEYDLQHDVFITTNQETKHEFRKLKQILSKCSKECIPGQMKKATGSQHSCCYECVNCPENHYSNETDMDHCLVCNNETHWAPVRSTMCFEKEVEYLDWDDSLALLLIALSLLGIAFVLAVGIIFTRNLKTPVVKSSGGLVVCYVMLACHALNFASTGFFIGEPQDFTCKTRQTLFGVSFTLCVSCILTKSLKILLAFSFDPTLKTFLKCLYRPVPIVLTCTGIQVVICTLWLVLAAPTVEENTSLPRVIILECEEGSALAFGTMLGYIAVLAFICFVFAFKGRKLPENYNEAKFLTFGMLIYFIAWITFIPVYATTFGKYLPAVEIIVILISNYGILCCTFFPKCYIILCKQKTNTKSVFLQMVYNYSAHSVDSLALSHVSLDSASHSTATTNPRPGNKTAACQNYKHLPVQVLAHTGMEKTMHASKTLHQKRSSSI
notes: GPRC6A, rat; previously described myc-tagged rat GPRC6A-pEGFPN1 construct with the mGluR5 signal peptide upstream of the myc tag; Each copy carries one tag only, HA or myc; the HA-GPRC6A construct is not described; also called WT myc-GPRC6A; WT HA-GPRC6A; source: HEK293T, transiently transfected (Lipofectamine 2000), on cells; not shown: HA (one copy), N-terminal, kept; myc (the other copy), …
Regarding B2, the “fold increase in FRET signal” value was 9.8 fold.
